{
  "source": "paper PMC11019291",
  "target": "SARS-CoV-2 nucleocapsid protein (N protein) (SARS-CoV-2, UniProt P0DTC9)",
  "experiment": "SERS (surface-immobilized aptamer)",
  "conditions": "protein: recombinant; tags: C-terminal His6 (pET26); N-terminal PelB signal and vector residues",
  "data": [
    {"binder": "AAAAACGCGCGTATTCCTTAGGGGCACCGCTACACGCGCG (ssDNA, 5'-thiol)", "note": "[anti-N DNA aptamer]", "values": [
      {"measurement": "binding result", "result": "binds"}
    ]}
  ]
}
